For series [1], the target named is Tth Man5 β-mannosidase from Thermotoga thermarum DSM 5069 (Thermotoga thermarum DSM 5069). Nature of the series: SEC; Superdex 200 10/30 GL column on an AKTA FPLC system; MW from the calibration curve of the gel filtration column.
Substrate in the series “purified protein”: O=[N+]([O-])c1ccc(O[C@@H]2O[C@H](CO)[C@@H](O)[C@H](O)[C@@H]2O)cc1
Nature of the series: purified protein. The settings on record: 50 mM imidazole-potassium buffer pH 5.5, 85°C, error given as ±0.5.

By stoichiometry N is commonly meant the number of molecules, sites or subunits per partner or assembly. “Tth Man5 β-mannosidase from Thermotoga thermarum DSM 5069 (enzyme)” had a stoichiometry N in series [1] of 7.

B1: Tth Man5 β-mannosidase (Pseudothermotoga thermarum DSM 5069) (protein)
chain: MDFLLGINYWSRSGAMYMWEDEYFNEEVIENEIIEMKNLGMNICRSFLFLPTFFPKPNKISEKHVERYLKFLNLCEEHGLKTLLTFIVGHMSGENFDPPFRNQRDLYMDEFMLQQQCFFVKSIVEKVRSSPAVYGYILSNEMPLYGGTGEPEKVLNWVKKLVEVIKSVDPTRPVGTGDGCWNVFGGENGFNLREISKIVDYLGPHVYLSETDEYRHSMIPEFVIRYLSQYDLPILYEEFGASSAQALDENIALYYREVLINCLINGAIGALGWCLNDFNYPNMKPYLHHPFELKFGIFKVDGARKPAAEEIVKFKNFVDSLENIQYPNAEACILVPSYYNKQYPFSFDDPKETFKHLLQATVLCAKAGFVVDLVEEENYKRWKSYKLIILPSERKYLATTWENLHKYVQAGGNLYISYYWGKYDFHQGIWSQNLESLIGCKLNLRYGLTSSLPSKVKLEYGGLTWKLNVEKCNEWEKSYAPIVSILETAESIELGQSDLQLVKNKVGSGKVFFINFPLEHILSVNEKINLSDLSHLIYRCIAKQASLNLCYCDNQRVRVRKIKSGRKTLYLIQNIAWDKEQVQTIFDNSSTYHVQIELDPKEYKLLNF
One may read the Km as the substrate concentration at which the rate is half of its maximum. As usually defined, the Vmax is the top rate of the reaction or transport when substrate is in excess. Usually kcat stands for the number of substrate molecules converted per active site and unit of time at saturation. The kcat/Km is the second-order rate constant that governs catalysis at low substrate concentration. Consider B1, for which, in the series “purified protein”, the Km came to 4.36 ± 0.05 mM, the maximal velocity (Vmax) was 227 µmol/min/mg, the kcat worked out at 1920 s⁻¹ and the catalytic efficiency (kcat/Km) is 441000 M⁻¹ s⁻¹.

The values are drawn from article PMC3852774.
